Test results: IntAct's records for PubMed 28424519

Target: snf2_yeast SNF2 (UniProt P22082)
UniProt P22082, sequence (P22082 whole entry): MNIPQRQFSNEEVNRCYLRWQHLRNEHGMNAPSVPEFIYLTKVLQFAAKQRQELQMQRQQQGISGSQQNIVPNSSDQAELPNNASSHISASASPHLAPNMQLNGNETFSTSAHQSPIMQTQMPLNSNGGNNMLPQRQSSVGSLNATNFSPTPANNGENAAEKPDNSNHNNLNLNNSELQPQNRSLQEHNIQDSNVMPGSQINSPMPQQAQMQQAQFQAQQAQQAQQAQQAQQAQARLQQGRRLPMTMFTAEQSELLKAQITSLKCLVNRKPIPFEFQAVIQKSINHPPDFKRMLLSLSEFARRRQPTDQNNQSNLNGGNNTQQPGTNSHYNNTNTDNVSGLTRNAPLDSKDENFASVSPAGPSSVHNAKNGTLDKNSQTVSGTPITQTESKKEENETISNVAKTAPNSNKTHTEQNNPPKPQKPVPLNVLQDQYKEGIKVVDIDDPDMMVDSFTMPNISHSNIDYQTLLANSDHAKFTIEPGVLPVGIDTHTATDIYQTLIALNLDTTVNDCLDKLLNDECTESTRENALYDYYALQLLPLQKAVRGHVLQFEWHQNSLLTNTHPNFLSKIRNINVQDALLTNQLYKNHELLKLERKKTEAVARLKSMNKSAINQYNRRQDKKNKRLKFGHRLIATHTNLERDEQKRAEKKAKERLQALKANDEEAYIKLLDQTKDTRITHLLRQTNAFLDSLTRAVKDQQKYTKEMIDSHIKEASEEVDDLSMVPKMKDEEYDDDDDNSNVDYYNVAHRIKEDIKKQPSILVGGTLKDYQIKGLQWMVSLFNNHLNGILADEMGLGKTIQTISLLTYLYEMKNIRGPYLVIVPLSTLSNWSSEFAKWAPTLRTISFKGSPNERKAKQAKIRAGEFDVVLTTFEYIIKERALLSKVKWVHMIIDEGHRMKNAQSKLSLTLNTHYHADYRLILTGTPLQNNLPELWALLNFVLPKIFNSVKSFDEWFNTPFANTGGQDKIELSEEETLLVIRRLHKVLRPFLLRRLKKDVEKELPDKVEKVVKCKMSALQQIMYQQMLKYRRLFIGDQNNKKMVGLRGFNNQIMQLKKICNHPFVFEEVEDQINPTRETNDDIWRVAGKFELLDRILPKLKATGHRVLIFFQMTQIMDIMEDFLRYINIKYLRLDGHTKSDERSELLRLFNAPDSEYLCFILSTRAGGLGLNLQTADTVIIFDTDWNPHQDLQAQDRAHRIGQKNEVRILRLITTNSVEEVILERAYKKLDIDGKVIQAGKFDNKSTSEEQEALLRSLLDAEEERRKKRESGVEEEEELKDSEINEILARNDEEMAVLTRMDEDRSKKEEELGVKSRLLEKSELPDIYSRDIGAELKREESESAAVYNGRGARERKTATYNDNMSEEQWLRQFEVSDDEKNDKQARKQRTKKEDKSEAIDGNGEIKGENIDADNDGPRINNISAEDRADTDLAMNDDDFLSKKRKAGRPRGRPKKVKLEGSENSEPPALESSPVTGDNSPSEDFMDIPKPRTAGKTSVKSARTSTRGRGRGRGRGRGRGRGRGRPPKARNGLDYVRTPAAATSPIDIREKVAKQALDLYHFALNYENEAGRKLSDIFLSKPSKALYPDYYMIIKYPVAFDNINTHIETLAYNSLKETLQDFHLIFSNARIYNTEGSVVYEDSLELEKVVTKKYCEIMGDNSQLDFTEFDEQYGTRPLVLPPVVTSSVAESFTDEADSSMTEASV

Substance	effect of a mutation on the interaction
Histone H4 (Saccharomyces cerevisiae) (from UniProt P02309) K17A	decreasing interaction
Histone H4 (Saccharomyces cerevisiae) (from UniProt P02309) K17A;R18A;R20A	decreasing interaction
Histone H4 (Saccharomyces cerevisiae) (from UniProt P02309) R18A	decreasing interaction
Histone H4 (Saccharomyces cerevisiae) (from UniProt P02309) R20A	decreasing interaction
